Laboratory results from publication PMC8020760, “Assembly of a dsRNA synthesizing complex: RNA-DEPENDENT RNA POLYMERASE 2 contacts the largest subunit of NUCLEAR RNA POLYMERASE IV” (Proceedings of the National Academy of Sciences of the …, 2021).

Assays:
[1] = target: T1, recombinant NRPD1 fused at its C terminus to a FLAG epitope tag (A. thaliana, UniProt Q9LQ02 1-1453); experiment: co-IP; purified recombinant proteins, 0.25 µM each, 30 min, room temperature, 50 mM Hepes-KOH pH 7.5, 150 mM NaCl; IP with resin against the tag of one or the other partner (anti-FLAG, anti-V5 or anti-HA); immunoblot; conditions: both partners purified
T1 construct: NRPD1 open reading frame, A. thaliana, codon optimized synthetic gene; full-length NRPD1 is 1,453 amino acids; More in SI Appendix, Methods; also called FLAG-tagged NRPD1; not shown: FLAG, C-terminal, kept
T1 sequence (looked up): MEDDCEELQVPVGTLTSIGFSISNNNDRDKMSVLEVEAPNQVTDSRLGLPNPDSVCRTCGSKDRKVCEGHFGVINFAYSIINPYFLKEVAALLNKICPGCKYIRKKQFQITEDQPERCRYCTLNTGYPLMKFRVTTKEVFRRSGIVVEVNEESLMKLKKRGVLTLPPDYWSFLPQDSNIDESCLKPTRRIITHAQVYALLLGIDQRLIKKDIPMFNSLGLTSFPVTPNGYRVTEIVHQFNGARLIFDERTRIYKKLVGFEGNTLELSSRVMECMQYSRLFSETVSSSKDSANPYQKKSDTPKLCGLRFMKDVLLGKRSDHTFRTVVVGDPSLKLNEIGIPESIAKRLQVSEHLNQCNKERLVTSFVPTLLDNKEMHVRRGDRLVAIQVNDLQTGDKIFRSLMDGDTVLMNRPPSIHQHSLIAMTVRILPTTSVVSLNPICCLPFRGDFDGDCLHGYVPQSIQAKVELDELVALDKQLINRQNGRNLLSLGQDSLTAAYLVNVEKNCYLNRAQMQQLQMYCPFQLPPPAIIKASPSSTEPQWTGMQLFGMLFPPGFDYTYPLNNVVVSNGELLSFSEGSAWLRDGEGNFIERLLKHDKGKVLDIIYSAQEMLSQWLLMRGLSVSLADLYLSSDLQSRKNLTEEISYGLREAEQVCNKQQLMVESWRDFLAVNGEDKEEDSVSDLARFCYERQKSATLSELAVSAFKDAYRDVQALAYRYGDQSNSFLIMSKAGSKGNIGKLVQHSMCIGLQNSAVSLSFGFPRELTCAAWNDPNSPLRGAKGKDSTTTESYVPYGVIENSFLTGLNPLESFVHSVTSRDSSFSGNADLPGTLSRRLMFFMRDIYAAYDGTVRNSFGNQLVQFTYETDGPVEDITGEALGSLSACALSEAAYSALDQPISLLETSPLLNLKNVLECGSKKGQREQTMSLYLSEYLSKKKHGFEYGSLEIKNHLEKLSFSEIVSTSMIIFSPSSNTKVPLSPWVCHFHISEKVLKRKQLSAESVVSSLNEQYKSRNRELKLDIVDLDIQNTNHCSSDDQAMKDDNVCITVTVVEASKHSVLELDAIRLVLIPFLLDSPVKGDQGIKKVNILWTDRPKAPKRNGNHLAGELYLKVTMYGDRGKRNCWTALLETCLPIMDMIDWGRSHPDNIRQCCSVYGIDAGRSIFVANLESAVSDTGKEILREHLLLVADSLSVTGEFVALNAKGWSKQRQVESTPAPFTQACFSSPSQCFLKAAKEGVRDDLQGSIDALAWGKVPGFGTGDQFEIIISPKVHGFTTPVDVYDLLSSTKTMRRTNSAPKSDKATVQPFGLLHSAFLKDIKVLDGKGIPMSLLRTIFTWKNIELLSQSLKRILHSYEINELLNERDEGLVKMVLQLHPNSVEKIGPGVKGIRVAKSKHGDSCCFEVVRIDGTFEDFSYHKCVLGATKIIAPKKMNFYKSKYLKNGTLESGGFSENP

[2] = target: T2, NRPD1-FLAG of plant Pol IV, as the band of about 165 kDa resolved by SDS-PAGE (A. thaliana, UniProt Q9LQ02 1-1453); experiment: far-Western, overlay or dot blot; far-Western: affinity-purified FLAG-tagged Pol II, Pol IV and Pol V resolved by SDS-PAGE, electroblotted to nitrocellulose, incubated with recombinant V5-tagged RDR2, detected with anti-V5-HRP; conditions: both partners purified
T2 construct: NRPD1, largest catalytic subunit of Pol IV, A. thaliana; full-length NRPD1 is 1,453 amino acids; The band is assigned to NRPD1 by its size only; also called largest Pol IV subunit
T2 sequence (looked up): T1 sequence (looked up)

B1: recombinant RNA-DEPENDENT RNA POLYMERASE 2 (RDR2), wild type, with N-terminal V5 epitope and 6xHis tags (enzyme, A. thaliana, UniProt O82504 1-1133, looked up)
chain: MVSETTTNRSTVKISNVPQTIVADELLRFLELHLGEDTVFALEIPTTRDNWKPRDFARVQFTTLEVKSRAQLLSSQSKLLFKTHNLRLSEAYDDIIPRPVDPRKRLDDIVLTVGFPESDEKRFCALEKWDGVRCWILTEKRRVEFWVWESGDCYKIEVRFEDIIETLSCCVNGDASEIDAFLLKLKYGPKVFKRVTVHIATKFKSDRYRFCKEDFDFMWIRTTDFSGSKSIGTSTCFCLEVHNGSTMLDIFSGLPYYREDTLSLTYVDGKTFASAAQIVPLLNAAILGLEFPYEILFQLNALVHAQKISLFAASDMELIKILRGMSLETALVILKKLHQQSSICYDPVFFVKTQMQSVVKKMKHSPASAYKRLTEQNIMSCQRAYVTPSKIYLLGPELETANYVVKNFAEHVSDFMRVTFVEEDWSKLPANALSVNSKEGYFVKPSRTNIYNRVLSILGEGITVGPKRFEFLAFSASQLRGNSVWMFASNEKVKAEDIREWMGCFRKIRSISKCAARMGQLFSASRQTLIVRAQDVEQIPDIEVTTDGADYCFSDGIGKISLAFAKQVAQKCGLSHVPSAFQIRYGGYKGVIAVDRSSFRKLSLRDSMLKFDSNNRMLNVTRWTESMPCFLNREIICLLSTLGIEDAMFEAMQAVHLSMLGNMLEDRDAALNVLQKLSGENSKNLLVKMLLQGYAPSSEPYLSMMLRVHHESQLSELKSRCRILVPKGRILIGCMDEMGILEYGQVYVRVTLTKAELKSRDQSYFRKIDEETSVVIGKVVVTKNPCLHPGDIRVLDAIYEVHFEEKGYLDCIIFPQKGERPHPNECSGGDLDGDQFFVSWDEKIIPSEMDPPMDYAGSRPRLMDHDVTLEEIHKFFVDYMISDTLGVISTAHLVHADRDPEKARSQKCLELANLHSRAVDFAKTGAPAEMPYALKPREFPDFLERFEKPTYISESVFGKLYRAVKSSLAQRKPEAESEDTVAYDVTLEEAGFESFIETAKAHRDMYGEKLTSLMIYYGAANEEEILTGILKTKEMYLARDNRRYGDMKDRITLSVKDLHKEAMGWFEKSCEDEQQKKKLASAWYYVTYNPNHRDEKLTFLSFPWIVGDVLLDIKAENAQRQSVEEKTSGLVSI
B1: binds [1]; binds [2].
